Read-outs that look alike come from different tables or passages of the source. *1 amine or outer side, *2 acyl side, *3 side chain or, on linkers, in order; H or OH if unused. Where a SMILES comes first, the peptide text is derived from it. Where no end group is shown, it is not given here. Side-chain parts run from the residue outwards. [ ]: non-standard residue; d: D form. The star is where a group is joined. X1 = 5‑aminoethylsulfonamide isoquinoline, O=S(=O)(NCCN*)c1cccc2cnccc12; Isoquinoline5sulfonyl = O=S(=O)(c1cccc2cnccc12)*; Ethylenediamine = C(CN[*:2])N[*:1]; hLeu = CC(C)CC[C@H](N)C(=O)O; Nle = CCCC[C@H](N)C(=O)O; Orn = NCCC[C@H](N)C(=O)O; Dab = NCC[C@H](N)C(=O)O; Nva = CCC[C@H](N)C(=O)O; Abu = CC[C@H](N)C(=O)O; Dap = NC[C@H](N)C(=O)O; GlyNH2 = aminoglycine; Ava = NCCCCC(=O)O; βAla = NCCC(=O)O
How the values were obtained:
PKB = target: T1, PKB (Homo sapiens, UniProt P31749); test: PKB in vitro kinase activity assay (soluble His-HA-PKB / SPA bead screening); format: biochemical; set-up: % Inhibition PKB I / % Inhibition PKB II: concentration or dose not given beside the values; settings: for PKB-kinase (spa) Assay 1, % inhibition of kinase activity / PKB-kinase (spa) Assay 2, % inhibition of kinase activity / inhibition at 1 µM: 1 μM compound concentration; for % Inhibition PKB I / % Inhibition PKB II: plate screening, peptide moiety alone
T1 construct: His; HA; made in house

PKA = target: T2, PKA (Bos taurus, UniProt P00517); test: In vitro PKA kinase activity assay (kemptide / SPA beads); format: biochemical; set-up: % Inhibition PKA: concentration or dose not given beside the values; settings: for PKA-kinase Assay 1, % inhibition of kinase activity / PKA-kinase Assay 2, % inhibition of kinase activity: 1 μM compound concentration; for % Inhibition PKA: plate screening, peptide moiety alone;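 on all read-outs here: Cell-free assay of purified PKA catalytic subunit phosphorylating the 7-mer kemptide substrate, run in MOPS buffer with magnesium acetate and BSA, with blank wells lacking enzyme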
T2 construct: purchased Promega

[1] = chimeric PTR compounds (peptide conjugated to isoquinoline small molecule), read-out: PKB IC50
[2] = chimeric PTR compounds (peptide conjugated to isoquinoline small molecule), read-out: PKA IC50
[3] = Table 3, linear 7-mer peptides, read-out: Activity PKB

T1 sequence (P31749 whole entry, species assumed): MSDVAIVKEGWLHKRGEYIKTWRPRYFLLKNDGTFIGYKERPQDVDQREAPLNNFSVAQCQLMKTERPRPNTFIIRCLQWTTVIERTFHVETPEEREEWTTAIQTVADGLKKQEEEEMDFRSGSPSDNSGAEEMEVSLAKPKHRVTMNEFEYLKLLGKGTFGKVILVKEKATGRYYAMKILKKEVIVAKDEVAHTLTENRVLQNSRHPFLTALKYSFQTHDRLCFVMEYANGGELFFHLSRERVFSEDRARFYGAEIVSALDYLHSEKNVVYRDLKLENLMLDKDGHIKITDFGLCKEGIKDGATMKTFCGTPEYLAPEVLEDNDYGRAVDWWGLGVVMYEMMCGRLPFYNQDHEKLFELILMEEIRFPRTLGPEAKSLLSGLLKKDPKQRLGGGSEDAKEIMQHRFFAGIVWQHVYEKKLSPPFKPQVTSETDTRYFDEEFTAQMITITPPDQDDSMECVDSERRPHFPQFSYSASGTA

Compound | PKB-kinase (spa) Assay 1, % inhibition of kinase activity (PKB; Assay 1) | PKB-kinase (spa) Assay 2, % inhibition of kinase activity (PKB; Assay 2) | further results
60020-49: Arg-Pro-Arg-Abu-Glu(Gly-5-aminoethylsulfonamide isoquinoline)-Dab-Phe (RPR[Abu]E([Gly-X1])[Dab]F) | 66% | 66% | PKA-kinase Assay 1, % inhibition of kinase activity (PKA): 95%; PKA-kinase Assay 2, % inhibition of kinase activity (PKA): 95%
CC(C)CC[C@H](NC(=O)[C@H](CCCN)NC(=O)[C@H](CCC(=O)NCCC(=O)NCCNS(=O)(=O)c1cccc2cnccc12)NC(=O)[C@H](CN)NC(=O)[C@H](CCCNC(=N)N)NC(=O)[C@@H]1CCCN1C(=O)[C@@H](N)CCCNC(=N)N)C(N)=O [60020-68] (H-RPR[Dap]E([βAla-Ethylenediamine-Isoquinoline5sulfonyl])[Orn][hLeu]-NH2; N-terminus assumed) |  |  | inhibition at 1 µM (PKB; Assay 1, read-out: PKB-kinase (spa) Assay 1, % inhibition of kinase activity): 61%; inhibition at 1 µM (PKB; Assay 2, read-out: PKB-kinase (spa) Assay 2, % inhibition of kinase activity): 74%; IC50 (PKB; Table 6, most active compounds from plate TY-60020, read-out: IC50 PKB): 0.5 µM; IC50 (PKA; Table 6, most active compounds from plate TY-60020, read-out: IC50 PKA): 250 nM
C[C@@H](O)[C@H](NC(=O)[C@H](CCCNC(=N)N)NC(=O)[C@@H]1CCCN1C(=O)[C@@H](N)CCCNC(=N)N)C(=O)N[C@@H](CCC(=O)NCCCCC(=O)NCCNS(=O)(=O)c1cccc2cnccc12)C(=O)N[C@@H](CO)C(=O)N[C@@H](Cc1ccccc1)C(N)=O [compound 6090] (H-RPRTE([Ava-Ethylenediamine-Isoquinoline5sulfonyl])SF-NH2; N-terminus assumed) |  |  | IC50 (PKB; [1]): 5.6 µM; IC50 (PKA; [2]): 600 nM
CC[C@H](NC(=O)[C@H](CO)NC(=O)[C@@H](NC(=O)[C@H](CCCNC(=N)N)NC(=O)[C@@H]1CCCN1C(=O)[C@@H](N)CCCNC(=N)N)C(C)C)C(=O)N[C@@H](Cc1ccccc1)C(N)=O [TY 60002-61, Arg-Pro-Arg-Val-Ser-Abu-Phe] (H-RPRVS[Abu]F-NH2; N-terminus and C-terminus assumed) |  |  | IC50 (PKB; [3]): 5 µM; IC50 (PKA; Table 3, linear 7-mer peptides, read-out: Activity PKA): > 40000 nM
60005-75 (RPR[Nva]S[GlyNH2][hLeu]) [Compound 60005-75] |  |  | % Inhibition PKB I (PKB): 70%; % Inhibition PKB II (PKB): 70%; % Inhibition PKA (PKA): −4%
60005-84 (RPR[Nva]TA[hLeu]) [Compound 60005-84] |  |  | % Inhibition PKB I (PKB): 39%; % Inhibition PKB II (PKB): 48%; % Inhibition PKA (PKA): 7%
60020-3: Arg-Pro-Arg-Dap-Glu(5-aminoethylsulfonamide isoquinoline)-Orn-Phe (RPR[Dap]E(X1)[Orn]F) | 52% | 60% | PKA-kinase Assay 1, % inhibition of kinase activity (PKA): 96%; PKA-kinase Assay 2, % inhibition of kinase activity (PKA): 96%
C[C@@H](O)[C@H](NC(=O)[C@H](CCCNC(=N)N)NC(=O)[C@@H]1CCCN1C(=O)[C@@H](N)CCCNC(=N)N)C(=O)N[C@@H](CC(=O)NCCNS(=O)(=O)c1cccc2cnccc12)C(=O)N[C@@H](CO)C(=O)N[C@@H](Cc1ccccc1)C(N)=O [compound 6130] (H-RPRTD([Ethylenediamine-Isoquinoline5sulfonyl])SF-NH2; N-terminus assumed) |  |  | IC50 (PKB; [1]): 9.5 µM; IC50 (PKA; [2]): 53 nM
N=C(N)NCCC[C@H](NC(=O)[C@@H]1CCCN1C(=O)[C@@H](N)CCCNC(=N)N)C(=O)N[C@@H](CCCN)C(=O)N[C@@H](CO)C(=O)N[C@@H](CO)C(=O)N[C@@H](Cc1ccccc1)C(N)=O [AR 60003-52, Arg-Pro-Arg-Orn-Ser-Ser-Phe] (H-RPR[Orn]SSF-NH2; N-terminus and C-terminus assumed) |  |  | IC50 (PKB; [3]): 2.5 µM
60020-18: Arg-Pro-Arg-Abu-Glu(5-aminoethylsulfonamide isoquinoline)-Dab-Hol (RPR[Abu]E(X1)[Dab][hLeu]) | 18% | 28% | 
60020-75: Arg-Pro-Arg-Orn-Glu(bAla-5-aminoethylsulfonamide isoquinoline)-Orn-Phe (RPR[Orn]E([βAla-X1])[Orn]F) | 23% | 35% | 
60020-32: Arg-Pro-Arg-Nle-Glu(5-aminoethylsulfonamide isoquinoline)-Nva-Hol (RPR[Nle]E(X1)[Nva][hLeu]) | 12% | 32% | 
60020-24: Arg-Pro-Arg-Abu-Glu(5-aminoethylsulfonamide isoquinoline)-Nva-Hol (RPR[Abu]E(X1)[Nva][hLeu]) | −17% | −12% | 
60020-23: Arg-Pro-Arg-Abu-Glu(5-aminoethylsulfonamide isoquinoline)-Nva-Phe (RPR[Abu]E(X1)[Nva]F) | −3% | −8% | 
60020-20: Arg-Pro-Arg-Abu-Glu(5-aminoethylsulfonamide isoquinoline)-Orn-Hol (RPR[Abu]E(X1)[Orn][hLeu]) | 11% | 15% | 
60020-5: Arg-Pro-Arg-Dap-Glu(5-aminoethylsulfonamide isoquinoline)-Ala-Phe (RPR[Dap]E(X1)AF) | 46% | 26% | 
60020-66: Arg-Pro-Arg-Dap-Glu(bAla-5-aminoethylsulfonamide isoquinoline)-Dab-Hol (RPR[Dap]E([βAla-X1])[Dab][hLeu]) | 52% | 63% | 
60020-73: Arg-Pro-Arg-Orn-Glu(bAla-5-aminoethylsulfonamide isoquinoline)-Dab-Phe (RPR[Orn]E([βAla-X1])[Dab]F) | 16% | 35% | 
60020-70: Arg-Pro-Arg-Dap-Glu(bAla-5-aminoethylsulfonamide isoquinoline)-Ala-Hol (RPR[Dap]E([βAla-X1])A[hLeu]) | 57% | 68% | 
60020-55: Arg-Pro-Arg-Abu-Glu(Gly-5-aminoethylsulfonamide isoquinoline)-Nva-Phe (RPR[Abu]E([Gly-X1])[Nva]F) | 20% | 40% | 

More lines, main results first:

PKB-kinase (spa) Assay 1, % inhibition of kinase activity (PKB; Assay 1) | PKB-kinase (spa) Assay 2, % inhibition of kinase activity (PKB; Assay 2) | Compound | further results
54% | 67% | 60020-44: Arg-Pro-Arg-Orn-Glu(Gly-5-aminoethylsulfonamide isoquinoline)-Orn-Hol (RPR[Orn]E([Gly-X1])[Orn][hLeu]) | PKA-kinase Assay 1, % inhibition of kinase activity (PKA): 95%; PKA-kinase Assay 2, % inhibition of kinase activity (PKA): 95%
63% | 69% | 60020-33: Arg-Pro-Arg-Dap-Glu(Gly-5-aminoethylsulfonamide isoquinoline)-Dab-Phe (RPR[Dap]E([Gly-X1])[Dab]F) | PKA-kinase Assay 1, % inhibition of kinase activity (PKA): 98%; PKA-kinase Assay 2, % inhibition of kinase activity (PKA): 98%
69% | 71% | 60020-36: Arg-Pro-Arg-Dap-Glu(Gly-5-aminoethylsulfonamide isoquinoline)-Orn-Hol (RPR[Dap]E([Gly-X1])[Orn][hLeu]) | PKA-kinase Assay 1, % inhibition of kinase activity (PKA): 93%; PKA-kinase Assay 2, % inhibition of kinase activity (PKA): 94%
−2% | 6% | 60020-21: Arg-Pro-Arg-Abu-Glu(5-aminoethylsulfonamide isoquinoline)-Ala-Phe (RPR[Abu]E(X1)AF) | 
37% | 57% | 60020-46: Arg-Pro-Arg-Orn-Glu(Gly-5-aminoethylsulfonamide isoquinoline)-Ala-Hol (RPR[Orn]E([Gly-X1])A[hLeu]) | 
36% | 22% | 60020-40: Arg-Pro-Arg-Dap-Glu(Gly-5-aminoethylsulfonamide isoquinoline)-Nva-Hol (RPR[Dap]E([Gly-X1])[Nva][hLeu]) | 
−55% | −5% | 60020-86: Arg-Pro-Arg-Abu-Glu(bAla-5-aminoethylsulfonamide isoquinoline)-Ala-Hol (RPR[Abu]E([βAla-X1])A[hLeu]) | 
19% | 39% | 60020-29: Arg-Pro-Arg-Nle-Glu(5-aminoethylsulfonamide isoquinoline)-Ala-Phe (RPR[Nle]E(X1)AF) | 
